{"source": "paper PMC2188260", "experiment_in_all_cases": "co-IP", "key": {"[1]": {"target": "gelsolin of rabbit lung macrophages (rabbit (endogenous in lung macrophages))"}, "[2]": {"target": "gelsolin of rabbit lung macrophages (rabbit (endogenous in lung macrophages))", "remark": "listed apart in the source"}, "[3]": {"target": "gelsolin of rabbit lung macrophages (rabbit (endogenous in lung macrophages))", "remark": "listed apart in the source"}, "[4]": {"target": "human plasma gelsolin (human) (UniProt P06396)", "sequence (P06396 28-782)": "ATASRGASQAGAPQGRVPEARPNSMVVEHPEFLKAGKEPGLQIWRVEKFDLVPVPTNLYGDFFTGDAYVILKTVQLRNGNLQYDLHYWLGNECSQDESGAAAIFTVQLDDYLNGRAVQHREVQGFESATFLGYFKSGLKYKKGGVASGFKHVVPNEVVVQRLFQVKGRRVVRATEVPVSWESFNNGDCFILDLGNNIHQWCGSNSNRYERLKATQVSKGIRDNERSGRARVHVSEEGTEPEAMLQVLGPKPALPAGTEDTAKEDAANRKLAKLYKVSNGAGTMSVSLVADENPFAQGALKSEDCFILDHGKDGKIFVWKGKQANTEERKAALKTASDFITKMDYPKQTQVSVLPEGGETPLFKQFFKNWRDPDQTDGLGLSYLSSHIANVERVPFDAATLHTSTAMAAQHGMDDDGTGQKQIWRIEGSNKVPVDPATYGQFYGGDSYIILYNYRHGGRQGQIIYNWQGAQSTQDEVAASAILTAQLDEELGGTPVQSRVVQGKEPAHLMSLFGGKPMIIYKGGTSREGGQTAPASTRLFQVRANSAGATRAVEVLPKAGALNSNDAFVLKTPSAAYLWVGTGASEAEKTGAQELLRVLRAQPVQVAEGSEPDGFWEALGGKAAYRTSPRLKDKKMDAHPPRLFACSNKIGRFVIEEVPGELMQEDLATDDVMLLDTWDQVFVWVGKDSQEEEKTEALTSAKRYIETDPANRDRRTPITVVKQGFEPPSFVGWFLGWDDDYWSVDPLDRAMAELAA"}}, "note": "Like-named read-outs stand apart in the source and are kept apart here.", "data": [{"substance": "actin of rabbit lung macrophages (from UniProt P29751 1-375) (natural protein)", "values": [{"measurement": "molar ratio of actin to gelsolin on the beads (actin per gelsolin)", "setting": "[1]", "result": 4}, {"measurement": "molar ratio of actin to gelsolin on the beads (actin per gelsolin)", "setting": "[2]", "result": 1}, {"measurement": "percent of gelsolin complexed with actin", "setting": "[2]", "result": 100, "unit": "%"}, {"measurement": "molar ratio of actin to gelsolin on the beads (actin per gelsolin)", "setting": "[3]", "result": 0.5}, {"measurement": "percent of gelsolin complexed with actin", "setting": "[3]", "result": 50, "unit": "%"}, {"measurement": "percent of gelsolin in the EGTA-resistant complex (cells in suspension, 0 min)", "setting": "[3]", "result": 20, "unit": "%"}, {"measurement": "percent of gelsolin in the EGTA-resistant complex (cells in suspension, 30 min)", "setting": "[3]", "result": 90, "unit": "%"}, {"measurement": "percent of total gelsolin complexed to actin (1 uM ionomycin, 30 s)", "setting": "[3]", "result": 80, "unit": "%"}, {"measurement": "percent of total gelsolin complexed to actin (before ionomycin)", "setting": "[3]", "result": 50, "unit": "%"}, {"measurement": "percentage of gelsolin in an EGTA-resistant complex (DMSO, experiment 1)", "setting": "[3]", "result": 32, "unit": "%"}, {"measurement": "percentage of gelsolin in an EGTA-resistant complex (DMSO, experiment 2)", "setting": "[3]", "result": 34, "unit": "%"}, {"measurement": "percentage of gelsolin in an EGTA-resistant complex (DMSO, experiment 3)", "setting": "[3]", "result": 51, "unit": "%"}, {"measurement": "percentage of gelsolin in an EGTA-resistant complex (DMSO, experiment 4)", "setting": "[3]", "result": 35, "unit": "%"}, {"measurement": "percentage of gelsolin in an EGTA-resistant complex (DMSO, mean value)", "setting": "[3]", "result": 38, "unit": "%"}, {"measurement": "percentage of gelsolin in an EGTA-resistant complex (FMLP, experiment 1)", "setting": "[3]", "result": 23, "unit": "%"}, {"measurement": "percentage of gelsolin in an EGTA-resistant complex (FMLP, experiment 2)", "setting": "[3]", "result": 24, "unit": "%"}, {"measurement": "percentage of gelsolin in an EGTA-resistant complex (FMLP, experiment 3)", "setting": "[3]", "result": 25, "unit": "%"}, {"measurement": "percentage of gelsolin in an EGTA-resistant complex (FMLP, experiment 4)", "setting": "[3]", "result": 26, "unit": "%"}, {"measurement": "percentage of gelsolin in an EGTA-resistant complex (FMLP, mean value)", "setting": "[3]", "result": 25, "unit": "%"}, {"measurement": "percentage of gelsolin in an EGTA-resistant complex (no addition, experiment 1)", "setting": "[3]", "result": 43, "unit": "%"}, {"measurement": "percentage of gelsolin in an EGTA-resistant complex (no addition, experiment 2)", "setting": "[3]", "result": 40, "unit": "%"}, {"measurement": "percentage of gelsolin in an EGTA-resistant complex (no addition, experiment 3)", "setting": "[3]", "result": 51, "unit": "%"}, {"measurement": "percentage of gelsolin in an EGTA-resistant complex (no addition, experiment 4)", "setting": "[3]", "result": 47, "unit": "%"}, {"measurement": "percentage of gelsolin in an EGTA-resistant complex (no addition, mean value)", "setting": "[3]", "result": 45, "unit": "%"}]}, {"substance": "rabbit skeletal muscle actin (from UniProt P68135 1-377) (natural protein)", "values": [{"measurement": "stoichiometry N (actin per gelsolin)", "setting": "[4]", "result": 1}]}]}
